We go through 1 substance from paper PMC6203356.

The target of this assay is CENP-A (endogenous, soluble pre-assembly fraction) (human (endogenous in SW480)) (UniProt P49450). As to the kind of experiment: co-IP; CENP-A IP (ACA serum) or mock IP from the soluble fraction (PBS, 0.5% NP-40) of SW480 cells treated 72 hours with control or HJURP siRNA; Western blot for the chaperones.
Sequence of UniProt P49450 (P49450 whole entry): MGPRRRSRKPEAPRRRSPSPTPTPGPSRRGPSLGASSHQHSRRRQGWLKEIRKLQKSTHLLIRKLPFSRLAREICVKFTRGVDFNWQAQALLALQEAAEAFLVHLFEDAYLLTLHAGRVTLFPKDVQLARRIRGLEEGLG

Turning to “HIRA (endogenous) (from UniProt P54198 1-1017) (natural protein)”, the fold increase in the amount bound to CENP-A after HJURP knockdown against control siRNA was 2.4 fold.
